Measurements as given in patent US20170190749A1.

T1: PhoCle0.1 large fragment after photocleavage (remainder of the protein)
T1 chain: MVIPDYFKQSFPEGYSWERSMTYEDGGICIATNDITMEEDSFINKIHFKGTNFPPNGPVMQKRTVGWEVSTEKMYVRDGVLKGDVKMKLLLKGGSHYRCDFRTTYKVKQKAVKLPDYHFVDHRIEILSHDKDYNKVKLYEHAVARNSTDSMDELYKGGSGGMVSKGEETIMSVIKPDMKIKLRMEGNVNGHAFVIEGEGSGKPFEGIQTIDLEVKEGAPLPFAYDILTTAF

T2: PhoCle0.3 large fragment after photocleavage (~20 kDa remainder of the PhoCle domain)
T2 chain: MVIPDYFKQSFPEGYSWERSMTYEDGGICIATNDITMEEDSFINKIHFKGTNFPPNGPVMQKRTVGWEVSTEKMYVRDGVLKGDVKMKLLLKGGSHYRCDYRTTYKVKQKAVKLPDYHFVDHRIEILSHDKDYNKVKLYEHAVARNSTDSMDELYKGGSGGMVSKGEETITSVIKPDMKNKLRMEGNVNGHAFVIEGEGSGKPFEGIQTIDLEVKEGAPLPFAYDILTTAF


How the values were obtained:
[1] = molecular target: T1, PhoCle0.1 large fragment after …; assay: spectroscopic and SDS-PAGE analyses of the protein before and after illumination
[2] = molecular target: T2, PhoCle0.3 large fragment after …; assay: decay of red fluorescence/absorbance following photocleavage

Binder | t0.5 of spontaneous dissociation after photocleavage [1] | t0.5 of peptide dissociation after photocleavage [2]
HYGNRVFTKYPR (modifications not checked) [PhoCle0.1 small chromophore-containing peptide fragment after photocleavage] | 500 s | 
HYGNRVFTKYPR (modifications not checked) [PhoCle0.3 small chromophore-containing peptide fragment after photocleavage] |  | 120 s
